Results published in patent publication US10087225B2, “Formulation of MK2 inhibitor peptides” (MOERAE MATRIX, INC., priority 2015, dated 2018).

Legend:
Test in all cases: Kinase Profiling Assay
Type in all cases: biochemical
Conditions in all cases: for % activity: 100 μM
cKit(h) = cKit(h) (Homo sapiens, UniProt P10721)
ErbB4(h) = ErbB4(h) (Homo sapiens, UniProt Q15303)
IRR(h) = IRR(h) (Homo sapiens, UniProt P14616)
NEK3(h) = biological target: T1, NEK3(h) (Homo sapiens, UniProt P51956)
T1 sequence (P51956 1-506): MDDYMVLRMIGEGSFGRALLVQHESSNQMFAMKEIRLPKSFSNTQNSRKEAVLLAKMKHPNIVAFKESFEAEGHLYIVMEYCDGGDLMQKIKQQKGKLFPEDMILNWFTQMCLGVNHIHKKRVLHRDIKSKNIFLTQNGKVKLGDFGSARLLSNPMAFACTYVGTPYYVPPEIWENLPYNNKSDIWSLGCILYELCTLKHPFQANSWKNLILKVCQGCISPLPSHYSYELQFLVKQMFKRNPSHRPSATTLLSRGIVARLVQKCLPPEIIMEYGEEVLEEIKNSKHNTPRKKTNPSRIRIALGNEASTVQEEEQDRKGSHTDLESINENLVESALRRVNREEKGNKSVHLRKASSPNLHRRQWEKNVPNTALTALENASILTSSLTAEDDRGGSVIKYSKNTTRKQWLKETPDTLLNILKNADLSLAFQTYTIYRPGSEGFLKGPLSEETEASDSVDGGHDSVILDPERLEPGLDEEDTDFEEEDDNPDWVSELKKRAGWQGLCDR

PAK2(h) = PAK2(h) (Homo sapiens, UniProt Q13177)
PAK2(h), sequence (Q13177 whole entry): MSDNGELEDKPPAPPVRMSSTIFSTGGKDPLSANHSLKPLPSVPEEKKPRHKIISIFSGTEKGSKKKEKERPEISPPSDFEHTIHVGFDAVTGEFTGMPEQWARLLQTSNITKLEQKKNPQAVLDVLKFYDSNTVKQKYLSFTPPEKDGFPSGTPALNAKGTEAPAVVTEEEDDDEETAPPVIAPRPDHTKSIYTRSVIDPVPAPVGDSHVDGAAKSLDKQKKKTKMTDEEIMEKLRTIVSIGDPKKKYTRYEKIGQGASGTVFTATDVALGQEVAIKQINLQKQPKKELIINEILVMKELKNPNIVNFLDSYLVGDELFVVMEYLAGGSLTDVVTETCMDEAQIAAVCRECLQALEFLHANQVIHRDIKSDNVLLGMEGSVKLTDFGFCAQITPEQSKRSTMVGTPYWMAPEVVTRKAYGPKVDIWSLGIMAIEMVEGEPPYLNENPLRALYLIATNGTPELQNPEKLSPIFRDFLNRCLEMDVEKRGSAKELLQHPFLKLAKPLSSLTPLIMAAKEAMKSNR

PKD2(h) = biological target: T2, PKD2(h) (Homo sapiens, UniProt Q9BZL6)
T2 sequence (Q9BZL6 1-878): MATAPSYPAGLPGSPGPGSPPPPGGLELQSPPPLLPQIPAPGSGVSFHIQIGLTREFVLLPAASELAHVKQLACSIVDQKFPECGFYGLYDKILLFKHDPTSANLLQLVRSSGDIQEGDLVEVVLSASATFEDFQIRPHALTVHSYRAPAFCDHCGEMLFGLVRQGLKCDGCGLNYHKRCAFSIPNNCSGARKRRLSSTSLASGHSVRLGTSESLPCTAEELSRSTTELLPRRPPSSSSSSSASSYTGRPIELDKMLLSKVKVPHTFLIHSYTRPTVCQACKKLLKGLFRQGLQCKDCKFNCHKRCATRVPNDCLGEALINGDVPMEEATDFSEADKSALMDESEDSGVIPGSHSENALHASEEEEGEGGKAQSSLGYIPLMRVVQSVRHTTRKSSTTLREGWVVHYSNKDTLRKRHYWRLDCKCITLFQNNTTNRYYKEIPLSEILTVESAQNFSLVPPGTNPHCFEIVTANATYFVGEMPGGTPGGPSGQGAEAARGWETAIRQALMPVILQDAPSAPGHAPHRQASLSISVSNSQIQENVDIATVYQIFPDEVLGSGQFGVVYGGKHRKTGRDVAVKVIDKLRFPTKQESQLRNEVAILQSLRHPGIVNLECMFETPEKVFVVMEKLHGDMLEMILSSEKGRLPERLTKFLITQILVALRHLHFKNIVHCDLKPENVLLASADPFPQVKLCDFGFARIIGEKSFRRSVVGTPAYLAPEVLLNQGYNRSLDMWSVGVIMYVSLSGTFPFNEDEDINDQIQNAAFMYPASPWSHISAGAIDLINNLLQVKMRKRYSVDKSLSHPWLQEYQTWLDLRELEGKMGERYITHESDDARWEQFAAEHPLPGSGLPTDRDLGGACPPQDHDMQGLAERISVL

Tec(h)activated = biological target: T3, Tec(h)activated (Homo sapiens, UniProt P42680)
T3 sequence (P42680 1-631): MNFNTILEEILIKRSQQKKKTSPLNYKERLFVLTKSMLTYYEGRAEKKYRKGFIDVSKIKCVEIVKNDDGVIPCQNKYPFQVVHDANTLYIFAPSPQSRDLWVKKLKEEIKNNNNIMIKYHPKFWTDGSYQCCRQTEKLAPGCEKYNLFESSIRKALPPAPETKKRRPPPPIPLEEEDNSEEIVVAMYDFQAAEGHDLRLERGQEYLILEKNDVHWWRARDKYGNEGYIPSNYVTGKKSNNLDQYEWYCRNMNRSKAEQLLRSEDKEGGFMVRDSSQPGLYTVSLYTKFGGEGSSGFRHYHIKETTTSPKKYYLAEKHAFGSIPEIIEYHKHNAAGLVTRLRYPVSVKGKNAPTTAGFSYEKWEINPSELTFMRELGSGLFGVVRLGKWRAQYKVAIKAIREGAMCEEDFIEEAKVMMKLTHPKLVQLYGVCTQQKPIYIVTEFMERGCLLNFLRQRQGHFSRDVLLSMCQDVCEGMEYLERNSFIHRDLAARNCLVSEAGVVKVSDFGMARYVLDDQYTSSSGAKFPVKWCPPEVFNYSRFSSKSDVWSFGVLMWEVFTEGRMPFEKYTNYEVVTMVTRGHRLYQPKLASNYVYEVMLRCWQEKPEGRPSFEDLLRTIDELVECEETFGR

Tie2(h) = Tie2(h) (Homo sapiens, UniProt Q02763)
Tie2(h), sequence (Q02763 23-1124): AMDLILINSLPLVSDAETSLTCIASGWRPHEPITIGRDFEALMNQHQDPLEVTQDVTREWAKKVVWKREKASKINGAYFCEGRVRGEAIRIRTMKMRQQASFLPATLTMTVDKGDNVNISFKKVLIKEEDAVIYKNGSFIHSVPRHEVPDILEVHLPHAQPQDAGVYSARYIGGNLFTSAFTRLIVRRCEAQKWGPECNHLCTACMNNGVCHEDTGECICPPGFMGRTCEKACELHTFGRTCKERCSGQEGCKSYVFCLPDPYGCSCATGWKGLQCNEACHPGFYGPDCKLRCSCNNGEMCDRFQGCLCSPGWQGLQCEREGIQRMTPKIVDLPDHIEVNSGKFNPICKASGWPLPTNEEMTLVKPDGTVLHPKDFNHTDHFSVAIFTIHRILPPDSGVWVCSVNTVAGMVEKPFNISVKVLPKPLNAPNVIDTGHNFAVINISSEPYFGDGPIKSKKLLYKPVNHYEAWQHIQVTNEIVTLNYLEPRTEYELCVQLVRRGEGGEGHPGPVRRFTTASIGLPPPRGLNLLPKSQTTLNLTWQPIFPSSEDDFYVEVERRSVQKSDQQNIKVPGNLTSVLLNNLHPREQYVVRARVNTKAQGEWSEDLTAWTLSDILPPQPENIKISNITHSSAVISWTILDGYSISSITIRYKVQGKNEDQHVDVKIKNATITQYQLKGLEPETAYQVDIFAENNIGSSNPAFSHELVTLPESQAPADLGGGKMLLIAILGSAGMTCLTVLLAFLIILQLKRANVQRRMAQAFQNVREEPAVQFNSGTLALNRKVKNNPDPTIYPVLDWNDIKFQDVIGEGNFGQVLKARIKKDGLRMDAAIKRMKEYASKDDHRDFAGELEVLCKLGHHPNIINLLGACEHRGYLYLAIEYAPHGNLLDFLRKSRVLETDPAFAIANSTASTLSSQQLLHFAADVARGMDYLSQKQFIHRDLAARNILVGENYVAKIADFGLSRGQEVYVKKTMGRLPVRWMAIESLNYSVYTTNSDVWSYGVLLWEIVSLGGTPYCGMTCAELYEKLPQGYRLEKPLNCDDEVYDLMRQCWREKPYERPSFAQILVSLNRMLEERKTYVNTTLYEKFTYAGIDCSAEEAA

ZIPK(h) = ZIPK(h) (Homo sapiens, UniProt O43293)
ZIPK(h), sequence (O43293 whole entry): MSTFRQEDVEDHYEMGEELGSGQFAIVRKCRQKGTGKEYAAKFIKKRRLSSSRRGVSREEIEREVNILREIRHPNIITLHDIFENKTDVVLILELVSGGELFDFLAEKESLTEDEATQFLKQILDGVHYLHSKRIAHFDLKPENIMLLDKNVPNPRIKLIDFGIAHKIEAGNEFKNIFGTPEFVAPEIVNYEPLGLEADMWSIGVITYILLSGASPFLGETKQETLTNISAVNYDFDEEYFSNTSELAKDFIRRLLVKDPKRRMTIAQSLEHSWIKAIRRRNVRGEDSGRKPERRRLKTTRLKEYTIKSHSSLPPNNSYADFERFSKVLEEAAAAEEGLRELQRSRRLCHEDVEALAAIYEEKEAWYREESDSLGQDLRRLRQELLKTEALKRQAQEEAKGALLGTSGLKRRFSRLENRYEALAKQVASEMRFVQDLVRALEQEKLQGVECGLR

IRR(h), sequence (P14616 27-1297): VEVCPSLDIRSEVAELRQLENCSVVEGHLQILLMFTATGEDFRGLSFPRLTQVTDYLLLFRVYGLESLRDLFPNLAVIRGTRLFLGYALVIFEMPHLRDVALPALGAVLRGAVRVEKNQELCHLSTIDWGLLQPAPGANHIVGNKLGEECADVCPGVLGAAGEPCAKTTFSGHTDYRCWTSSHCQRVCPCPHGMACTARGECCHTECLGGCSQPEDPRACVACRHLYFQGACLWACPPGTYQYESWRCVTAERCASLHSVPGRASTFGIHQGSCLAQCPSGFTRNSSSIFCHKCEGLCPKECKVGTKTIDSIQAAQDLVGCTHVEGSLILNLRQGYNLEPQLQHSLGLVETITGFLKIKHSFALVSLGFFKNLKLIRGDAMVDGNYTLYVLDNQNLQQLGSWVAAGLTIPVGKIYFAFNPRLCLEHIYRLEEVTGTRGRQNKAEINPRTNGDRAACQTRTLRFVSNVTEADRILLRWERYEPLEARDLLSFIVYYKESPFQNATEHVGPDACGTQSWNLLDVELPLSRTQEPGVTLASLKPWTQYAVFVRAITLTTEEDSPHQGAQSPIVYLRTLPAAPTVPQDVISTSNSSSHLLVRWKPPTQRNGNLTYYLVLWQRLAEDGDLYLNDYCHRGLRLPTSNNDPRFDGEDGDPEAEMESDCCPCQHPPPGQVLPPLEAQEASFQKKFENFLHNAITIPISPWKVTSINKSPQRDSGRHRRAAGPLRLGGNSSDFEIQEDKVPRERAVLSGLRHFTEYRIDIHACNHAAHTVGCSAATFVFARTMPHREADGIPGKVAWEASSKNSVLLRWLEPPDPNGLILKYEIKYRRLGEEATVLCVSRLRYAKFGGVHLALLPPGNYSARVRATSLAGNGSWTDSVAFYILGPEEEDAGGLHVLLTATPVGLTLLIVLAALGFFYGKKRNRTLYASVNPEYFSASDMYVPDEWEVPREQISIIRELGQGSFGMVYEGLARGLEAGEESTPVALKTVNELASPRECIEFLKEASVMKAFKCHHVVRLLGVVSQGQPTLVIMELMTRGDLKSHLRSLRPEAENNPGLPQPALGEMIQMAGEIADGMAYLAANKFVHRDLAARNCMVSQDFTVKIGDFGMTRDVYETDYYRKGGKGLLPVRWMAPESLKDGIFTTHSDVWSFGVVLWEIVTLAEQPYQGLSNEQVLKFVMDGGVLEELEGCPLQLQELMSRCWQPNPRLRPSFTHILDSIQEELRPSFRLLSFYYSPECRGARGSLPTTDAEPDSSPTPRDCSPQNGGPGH
ErbB4(h), sequence (Q15303 26-1308): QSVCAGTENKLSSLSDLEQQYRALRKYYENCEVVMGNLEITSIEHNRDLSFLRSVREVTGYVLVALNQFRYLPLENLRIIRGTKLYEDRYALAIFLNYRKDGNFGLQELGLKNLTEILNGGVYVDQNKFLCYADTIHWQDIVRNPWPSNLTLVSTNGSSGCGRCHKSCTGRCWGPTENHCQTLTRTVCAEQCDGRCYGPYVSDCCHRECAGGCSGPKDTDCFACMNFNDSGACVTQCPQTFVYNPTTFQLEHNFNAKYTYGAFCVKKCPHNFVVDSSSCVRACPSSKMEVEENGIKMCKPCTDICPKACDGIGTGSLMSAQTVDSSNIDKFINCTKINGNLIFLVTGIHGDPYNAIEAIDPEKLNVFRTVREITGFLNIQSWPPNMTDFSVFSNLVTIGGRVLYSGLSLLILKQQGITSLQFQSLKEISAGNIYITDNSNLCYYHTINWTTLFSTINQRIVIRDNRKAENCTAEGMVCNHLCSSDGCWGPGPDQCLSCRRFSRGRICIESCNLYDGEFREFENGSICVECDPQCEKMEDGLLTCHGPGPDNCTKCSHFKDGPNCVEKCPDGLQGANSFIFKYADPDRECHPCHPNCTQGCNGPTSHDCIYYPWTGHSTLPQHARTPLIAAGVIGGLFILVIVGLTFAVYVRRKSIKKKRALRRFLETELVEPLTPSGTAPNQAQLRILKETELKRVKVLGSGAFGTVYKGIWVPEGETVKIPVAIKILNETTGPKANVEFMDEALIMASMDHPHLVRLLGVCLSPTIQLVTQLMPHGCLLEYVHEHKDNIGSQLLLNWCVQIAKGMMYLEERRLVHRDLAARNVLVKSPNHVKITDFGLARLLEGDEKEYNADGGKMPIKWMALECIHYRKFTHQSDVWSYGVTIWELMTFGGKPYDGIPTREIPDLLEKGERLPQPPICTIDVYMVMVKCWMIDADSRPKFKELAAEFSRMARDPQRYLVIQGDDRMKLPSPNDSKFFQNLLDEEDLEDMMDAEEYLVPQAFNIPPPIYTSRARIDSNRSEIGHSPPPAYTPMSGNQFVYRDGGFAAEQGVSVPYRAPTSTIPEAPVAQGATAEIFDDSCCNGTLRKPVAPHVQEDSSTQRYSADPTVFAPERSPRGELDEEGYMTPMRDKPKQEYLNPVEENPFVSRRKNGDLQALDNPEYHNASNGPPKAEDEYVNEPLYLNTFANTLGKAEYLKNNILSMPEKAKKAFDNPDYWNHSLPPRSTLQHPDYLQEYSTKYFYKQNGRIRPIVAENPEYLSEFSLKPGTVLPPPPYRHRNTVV

Substance	activity at 100 µM (cKit(h))	activity at 100 µM (ErbB4(h))	activity at 100 µM (IRR(h))	activity at 100 µM (NEK3(h))	activity at 100 µM (PAK2(h))	activity at 100 µM (PKD2(h))	activity at 100 µM (Tec(h)activated)	activity at 100 µM (Tie2(h))	activity at 100 µM (ZIPK(h))	% activity (cKit(h))	% activity (ErbB4(h))	% activity (IRR(h))	% activity (NEK3(h))	% activity (PAK2(h))	% activity (PKD2(h))	% activity (Tec(h)activated)	% activity (Tie2(h))	% activity (ZIPK(h))
H-YARAAARQARAKALARQLGVAA-OH [MMI-0100]	95%	73%	85%	100%	71%	84%	100%	28%	80%									
HRRIKAWLKKIKALARQLGVAA (Mammalian) [MMI-0500]										45%	2%	10%	20%	44%	10%	33%	22%	1%
YARAAARQARAKALNRQLGVA (Mammalian) [MMI-0200]										110%	82%	69%	100%	69%	78%	77%	53%	67%
